Data as given in patent US20150344570A1 (published 2015).

T1: FcγRIIa R (human, UniProt P12318 34-217)
T1 construct: extracellular domain; also called FcgRIIa R type; 2aR
T1 sequence (looked up): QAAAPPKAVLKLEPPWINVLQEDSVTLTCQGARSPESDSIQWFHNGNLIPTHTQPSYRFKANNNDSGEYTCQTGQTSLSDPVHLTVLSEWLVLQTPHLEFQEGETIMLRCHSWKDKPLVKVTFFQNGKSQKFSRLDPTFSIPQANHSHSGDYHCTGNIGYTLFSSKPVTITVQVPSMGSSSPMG


biological target: T1, FcγRIIa R; test: SPR (Biacore), captured antibody, FcγR as analyte; relative binding activity
Method: Analysis of interaction between objective antibody and the FcγR was carried out using Biacore T100 (GE Healthcare). HBS-EP+ (GE Healthcare) was used as the running buffer, and the measurement temperature was set to 25° C. Chips produced by immobilizing the antigen peptide by the amine coupling method to a Series S Sencor Chip CM5 (GE Healthcare), or alternatively, chips produced by allowing preliminarily biotinylated antigen peptides to interact with and immobilize onto a Series S Sensor Chip SA (certified) (GE Healthcare) were used. Antibodies of interest were captured onto an antigen peptide-immobilized chip, and allowed to interact to each FcγR diluted with running buffer. To regenerate and repeatedly use the chip, the antibodies captured on the chip were washed off by reacting 10 mM glycine-HCl, pH 1.5.

Row | Binder | Ho/Con_2aR
1 | GpH7-B3 variant L328_09D/GpL16-k0 (antibody, human IgG1, kappa, also called Ho Ab L328_09D) heavy: not shown light: DIVMTQSPLSLPVTPGEPASISCQASESLVHSNRNTYLHWYLQKPGQSPQLLIYKVSNRFSGVPDRFSGSGSGTDFTLKISRVEAEDVGVYYCSQNTHVPPTFGQGTKVEIERTVAAPSVFIFPPSDEQLKSGTASVVCLLNNFYPREAKVQWKVDNALQSGNSQESVTEQDSKDSTYSLSSTLTLSKADYEKHKVYACEVTHQGLSSPVTKSFNRGEC | 68.8 % (GpH7-B3/GpL16-k0 = 100)
2 | GpH7-B3 variant L328_14T/GpL16-k0 (antibody, human IgG1, kappa, also called Ho Ab L328_14T) heavy: not shown light: DIVMTQSPLSLPVTPGEPASISCQASESLVHSNRNTYLHWYLQKPGQSPQLLIYKVSNRFSGVPDRFSGSGSGTDFTLKISRVEAEDVGVYYCSQNTHVPPTFGQGTKVEIERTVAAPSVFIFPPSDEQLKSGTASVVCLLNNFYPREAKVQWKVDNALQSGNSQESVTEQDSKDSTYSLSSTLTLSKADYEKHKVYACEVTHQGLSSPVTKSFNRGEC | 118 % (GpH7-B3/GpL16-k0 = 100)
3 | GpH7-B3 variant L328_10E/GpL16-k0 (antibody, human IgG1, kappa, also called Ho Ab L328_10E) heavy: not shown light: DIVMTQSPLSLPVTPGEPASISCQASESLVHSNRNTYLHWYLQKPGQSPQLLIYKVSNRFSGVPDRFSGSGSGTDFTLKISRVEAEDVGVYYCSQNTHVPPTFGQGTKVEIERTVAAPSVFIFPPSDEQLKSGTASVVCLLNNFYPREAKVQWKVDNALQSGNSQESVTEQDSKDSTYSLSSTLTLSKADYEKHKVYACEVTHQGLSSPVTKSFNRGEC | 48.1 % (GpH7-B3/GpL16-k0 = 100)
4 | GpH7-B3 variant L328_13S/GpL16-k0 (antibody, human IgG1, kappa, also called Ho Ab L328_13S) heavy: not shown light: DIVMTQSPLSLPVTPGEPASISCQASESLVHSNRNTYLHWYLQKPGQSPQLLIYKVSNRFSGVPDRFSGSGSGTDFTLKISRVEAEDVGVYYCSQNTHVPPTFGQGTKVEIERTVAAPSVFIFPPSDEQLKSGTASVVCLLNNFYPREAKVQWKVDNALQSGNSQESVTEQDSKDSTYSLSSTLTLSKADYEKHKVYACEVTHQGLSSPVTKSFNRGEC | 108 % (GpH7-B3/GpL16-k0 = 100)

The remaining lines, values ahead:

Row | Ho/Con_2aR | Binder
5 | 77 % (GpH7-B3/GpL16-k0 = 100) | GpH7-B3 variant N325_07I/GpL16-k0 (antibody, human IgG1, kappa, also called Ho Ab N325_07I) heavy: not shown light: DIVMTQSPLSLPVTPGEPASISCQASESLVHSNRNTYLHWYLQKPGQSPQLLIYKVSNRFSGVPDRFSGSGSGTDFTLKISRVEAEDVGVYYCSQNTHVPPTFGQGTKVEIERTVAAPSVFIFPPSDEQLKSGTASVVCLLNNFYPREAKVQWKVDNALQSGNSQESVTEQDSKDSTYSLSSTLTLSKADYEKHKVYACEVTHQGLSSPVTKSFNRGEC
6 | 74.8 % (GpH7-B3/GpL16-k0 = 100) | GpH7-B3 variant N325_09D/GpL16-k0 (antibody, human IgG1, kappa, also called Ho Ab N325_09D) heavy: not shown light: DIVMTQSPLSLPVTPGEPASISCQASESLVHSNRNTYLHWYLQKPGQSPQLLIYKVSNRFSGVPDRFSGSGSGTDFTLKISRVEAEDVGVYYCSQNTHVPPTFGQGTKVEIERTVAAPSVFIFPPSDEQLKSGTASVVCLLNNFYPREAKVQWKVDNALQSGNSQESVTEQDSKDSTYSLSSTLTLSKADYEKHKVYACEVTHQGLSSPVTKSFNRGEC
7 | 124 % (GpH7-B3/GpL16-k0 = 100) | GpH7-B3 variant N325_06M/GpL16-k0 (antibody, human IgG1, kappa, also called Ho Ab N325_06M) heavy: not shown light: DIVMTQSPLSLPVTPGEPASISCQASESLVHSNRNTYLHWYLQKPGQSPQLLIYKVSNRFSGVPDRFSGSGSGTDFTLKISRVEAEDVGVYYCSQNTHVPPTFGQGTKVEIERTVAAPSVFIFPPSDEQLKSGTASVVCLLNNFYPREAKVQWKVDNALQSGNSQESVTEQDSKDSTYSLSSTLTLSKADYEKHKVYACEVTHQGLSSPVTKSFNRGEC
8 | 95 % (GpH7-B3/GpL16-k0 = 100) | GpH7-B3 variant N325_08L/GpL16-k0 (antibody, human IgG1, kappa, also called Ho Ab N325_08L) heavy: not shown light: DIVMTQSPLSLPVTPGEPASISCQASESLVHSNRNTYLHWYLQKPGQSPQLLIYKVSNRFSGVPDRFSGSGSGTDFTLKISRVEAEDVGVYYCSQNTHVPPTFGQGTKVEIERTVAAPSVFIFPPSDEQLKSGTASVVCLLNNFYPREAKVQWKVDNALQSGNSQESVTEQDSKDSTYSLSSTLTLSKADYEKHKVYACEVTHQGLSSPVTKSFNRGEC
9 | 37.8 % (GpH7-B3/GpL16-k0 = 100) | GpH7-B3 variant N325_03V/GpL16-k0 (antibody, human IgG1, kappa, also called Ho Ab N325_03V) heavy: not shown light: DIVMTQSPLSLPVTPGEPASISCQASESLVHSNRNTYLHWYLQKPGQSPQLLIYKVSNRFSGVPDRFSGSGSGTDFTLKISRVEAEDVGVYYCSQNTHVPPTFGQGTKVEIERTVAAPSVFIFPPSDEQLKSGTASVVCLLNNFYPREAKVQWKVDNALQSGNSQESVTEQDSKDSTYSLSSTLTLSKADYEKHKVYACEVTHQGLSSPVTKSFNRGEC
